Test results taken from paper PMC1140373 (Nucleic Acids Research, 2005).

T1: Human TFIIEα, wild type, N-terminal FLAG tag (human, UniProt P29083 1-439)
T1 sequence (looked up): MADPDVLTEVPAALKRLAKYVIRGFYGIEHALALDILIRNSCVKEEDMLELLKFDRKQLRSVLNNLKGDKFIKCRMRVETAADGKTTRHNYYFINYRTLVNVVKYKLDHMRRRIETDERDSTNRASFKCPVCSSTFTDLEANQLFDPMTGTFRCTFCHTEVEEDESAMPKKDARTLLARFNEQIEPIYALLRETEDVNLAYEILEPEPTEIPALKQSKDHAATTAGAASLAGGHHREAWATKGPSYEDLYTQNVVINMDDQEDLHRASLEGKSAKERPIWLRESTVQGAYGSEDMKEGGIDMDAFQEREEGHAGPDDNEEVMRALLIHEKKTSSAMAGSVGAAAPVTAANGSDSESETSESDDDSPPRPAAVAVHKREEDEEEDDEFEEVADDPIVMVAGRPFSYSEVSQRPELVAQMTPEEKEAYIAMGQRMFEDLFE

T2: FLAG-tagged wild type TFIIEβ (human, UniProt P29084 1-291)
T2 sequence (looked up): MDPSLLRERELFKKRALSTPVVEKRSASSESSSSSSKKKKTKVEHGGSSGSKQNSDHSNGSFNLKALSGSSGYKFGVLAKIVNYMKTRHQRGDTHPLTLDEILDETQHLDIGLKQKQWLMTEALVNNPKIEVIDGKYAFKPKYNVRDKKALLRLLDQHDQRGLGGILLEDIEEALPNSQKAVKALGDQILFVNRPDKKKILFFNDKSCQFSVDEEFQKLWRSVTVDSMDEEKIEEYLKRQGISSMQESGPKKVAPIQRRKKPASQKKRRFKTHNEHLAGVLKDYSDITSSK


What was measured:
[1] = molecular target: T3, Glutathione S-transferase (GST)-tagged human XPB (human, UniProt P19447 1-782); test: cell-based or functional assay
[2] = molecular target: the molecule itself; test: co-IP
[3] = molecular target: T1, Human TFIIEα, wild type, N-terminal …; test: pull-down
[4] = molecular target: T2, FLAG-tagged wild type TFIIEβ; test: co-IP
[5] = molecular target: T1, Human TFIIEα, wild type, N-terminal …; test: co-IP
[6] = molecular target: T3, Glutathione S-transferase (GST)-tagged …; test: pull-down

T3 sequence (P19447 whole entry): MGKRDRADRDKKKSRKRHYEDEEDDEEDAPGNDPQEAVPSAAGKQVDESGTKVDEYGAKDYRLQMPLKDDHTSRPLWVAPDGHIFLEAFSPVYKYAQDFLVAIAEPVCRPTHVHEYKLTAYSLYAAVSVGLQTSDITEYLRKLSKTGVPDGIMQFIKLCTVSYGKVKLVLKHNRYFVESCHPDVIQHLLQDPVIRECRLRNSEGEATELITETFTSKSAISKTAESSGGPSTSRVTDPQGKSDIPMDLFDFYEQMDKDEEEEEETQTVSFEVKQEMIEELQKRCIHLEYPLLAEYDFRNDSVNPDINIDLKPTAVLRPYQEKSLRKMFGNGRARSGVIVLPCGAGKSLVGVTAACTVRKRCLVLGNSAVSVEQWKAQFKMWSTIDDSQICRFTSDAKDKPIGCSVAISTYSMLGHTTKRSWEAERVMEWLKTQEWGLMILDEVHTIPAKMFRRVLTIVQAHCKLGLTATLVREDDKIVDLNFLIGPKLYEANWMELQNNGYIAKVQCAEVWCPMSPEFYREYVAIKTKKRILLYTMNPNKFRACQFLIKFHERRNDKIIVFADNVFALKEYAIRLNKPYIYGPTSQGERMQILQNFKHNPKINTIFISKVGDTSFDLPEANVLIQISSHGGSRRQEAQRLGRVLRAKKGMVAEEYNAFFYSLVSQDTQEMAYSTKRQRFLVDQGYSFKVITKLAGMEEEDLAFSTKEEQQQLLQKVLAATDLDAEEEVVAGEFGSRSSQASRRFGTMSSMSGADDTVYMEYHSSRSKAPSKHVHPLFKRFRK

Row | Binder | stimulation of XPB helicase activity, 2 μg of XPB and 1.2 μg of wild-type TFIIEβ [1] [fold] | binding result [2] | binding result [3] | binding result [4] | binding result [5] | binding result [6]
1 | Human TFIIEβ, wild type, His6 tagged (natural protein, UniProt P29084 1-291, looked up) MDPSLLRERELFKKRALSTPVVEKRSASSESSSSSSKKKKTKVEHGGSSGSKQNSDHSNGSFNLKALSGSSGYKFGVLAKIVNYMKTRHQRGDTHPLTLDEILDETQHLDIGLKQKQWLMTEALVNNPKIEVIDGKYAFKPKYNVRDKKALLRLLDQHDQRGLGGILLEDIEEALPNSQKAVKALGDQILFVNRPDKKKILFFNDKSCQFSVDEEFQKLWRSVTVDSMDEEKIEEYLKRQGISSMQESGPKKVAPIQRRKKPASQKKRRFKTHNEHLAGVLKDYSDITSSK | 3 | binds | binds | – | – | –
2 | Human TFIIEβ I171S, His6 tagged (natural protein, UniProt P29084 1-291, looked up) MDPSLLRERELFKKRALSTPVVEKRSASSESSSSSSKKKKTKVEHGGSSGSKQNSDHSNGSFNLKALSGSSGYKFGVLAKIVNYMKTRHQRGDTHPLTLDEILDETQHLDIGLKQKQWLMTEALVNNPKIEVIDGKYAFKPKYNVRDKKALLRLLDQHDQRGLGGILLEDSEEALPNSQKAVKALGDQILFVNRPDKKKILFFNDKSCQFSVDEEFQKLWRSVTVDSMDEEKIEEYLKRQGISSMQESGPKKVAPIQRRKKPASQKKRRFKTHNEHLAGVLKDYSDITSSK | – | – | – | binds | binds | binds
3 | Human TFIIEβ I189S, His6 tagged (natural protein, UniProt P29084 1-291, looked up) MDPSLLRERELFKKRALSTPVVEKRSASSESSSSSSKKKKTKVEHGGSSGSKQNSDHSNGSFNLKALSGSSGYKFGVLAKIVNYMKTRHQRGDTHPLTLDEILDETQHLDIGLKQKQWLMTEALVNNPKIEVIDGKYAFKPKYNVRDKKALLRLLDQHDQRGLGGILLEDIEEALPNSQKAVKALGDQSLFVNRPDKKKILFFNDKSCQFSVDEEFQKLWRSVTVDSMDEEKIEEYLKRQGISSMQESGPKKVAPIQRRKKPASQKKRRFKTHNEHLAGVLKDYSDITSSK | – | – | – | binds | binds | binds
